Source: paper PMC6446838, “MAP7 family proteins regulate kinesin-1 recruitment and activation” (The Journal of Cell Biology, 2019)

B1: Alexa Fluor 647–labeled SNAP-tag-MAP7D3, full length (natural protein, UniProt Q8IWC1 1-876, looked up)
chain: MMADGAAAGAGGSPSLRELRARMVAAANEIAKERRKQDVVNRVATHSSNIRSTFKPVIDGSMLKNDIKQRLARERREEKRRQQDANKETQLLEKERKTKLQYEKQMEERQRKLKERKEKEEQRRIAAEEKRHQKDEAQKEKFTAILYRTLERRRLADDYQQKRWSWGGSAMANSESKTANKRSASTEKLEQGTSALIRQMPLSSAGLQNSVAKRKTDKERSSSLNRRDSNLHSSTDKEQAERKPRVTGVTNYVMQYVTVPLRKCTSDELRAVMFPMSTMKIPPQTKVEESPLEKVETPPKASVDAPPQVNVEVFCNTSMEASPKAGVGMAPEVSTDSFPVVSVDVSPVVSTYDSEMSMDASPELSIEALPKVDLETVPKVSIVASPEASLEAPPEVSLEALPEVSVEAAPEGSLEAPPKGSAEVAPKESVKGSPKESMEASPEAMVKASPKTSLEASMEASPKAKARDAPKKSEMDKQALIPIAKKRLSSYTECYKWSSSPENACGLPSPISTNRQIQKNCPPSPLPLISKQSPQTSFPYKIMPIQHTLSVQSASSTVKKKKETVSKTTNRCEALSQRHMIYEESGNKSTAGIMNAEAATKILTELRRLAREQREKEEEERQREEMQQRVIKKSKDMAKEAVGGQAEDHLKLKDGQQQNETKKKKGWLDQEDQEAPLQKGDAKIKAQEEADKRKKEHERIMLQNLQERLERKKRIEEIMKRTRKTDVNASKVTETSSHDIYEEAEADNEESDKDSLNEMFPSAILNGTGSPTKFKMPFNNAKKMTHKLVFLEDGTSQVRKEPKTYFNGDLKNFRQKSMKDTSIQEVVSRPSSKRMTSHTTKTRKADETNTTSRSSAQTKSEGFHDILPKSSDTFRQ
modifications: Alexa Fluor 647 on the SNAP-tag
B2: K560-GFP with C-terminal Strep-tag, purified (domain or fragment, human, UniProt P33176 1-560, looked up)
chain: MADLAECNIKVMCRFRPLNESEVNRGDKYIAKFQGEDTVVIASKPYAFDRVFQSSTSQEQVYNDCAKKIVKDVLEGYNGTIFAYGQTSSGKTHTMEGKLHDPEGMGIIPRIVQDIFNYIYSMDENLEFHIKVSYFEIYLDKIRDLLDVSKTNLSVHEDKNRVPYVKGCTERFVCSPDEVMDTIDEGKSNRHVAVTNMNEHSSRSHSIFLINVKQENTQTEQKLSGKLYLVDLAGSEKVSKTGAEGAVLDEAKNINKSLSALGNVISALAEGSTYVPYRDSKMTRILQDSLGGNCRTTIVICCSPSSYNESETKSTLLFGQRAKTIKNTVCVNVELTAEQWKKKYEKEKEKNKILRNTIQWLENELNRWRNGETVPIDEQFDKEKANLEAFTVDKDITLTNDKPATAIGVIGNFTDAERRKCEEEIAKLYKQLDDKDEEINQQSQLVEKLKTQMLDQEELLASTRRDQDNMQAELNRLQAENDASKEEVKEVLQALEELAVNYDQKSQEVEDKTKEYELLSDELNQKSATLASIDAELQKLKEMTNHQKKRAAEMMASLLK
notes: kinesin-1 heavy chain KIF5B, human, residues 1-560; pTT5 vector; also called KIF5B-560; source: HEK293T, transfected, purified (Strep(II)-streptactin, high-salt wash); not shown: GFP, C-terminal, kept
B3: KIF5B fragment (minimal binding construct for SEC-MALS and ITC) (domain or fragment)
chain: CEEEIAKLYKQLDDKDEEINQQSQLVEKLKTQMLDQEELLASTRRDQDNMQAELNRLQAENDASKEEVKEVLQALEELAVNYDQKSQEVEDKTKEYELLSDEL
B4: K370-GFP with C-terminal Strep-tag, purified (domain or fragment)
chain: not shown
notes: kinesin-1 heavy chain KIF5B, human, residues 1-370; pEGFP-N1 vector; also called KIF5B 1–370; source: HEK293T, transfected, purified (Strep(II)-streptactin); not shown: GFP, C-terminal, kept

Columns and labels:
[1] = biological target: B2; assay: cell-based or functional assay
[2] = biological target: T1, full-length KIF5B-GFP with C-terminal Strep-tag (human, UniProt P33176 1-963); assay: cell-based or functional assay
T1 sequence (looked up): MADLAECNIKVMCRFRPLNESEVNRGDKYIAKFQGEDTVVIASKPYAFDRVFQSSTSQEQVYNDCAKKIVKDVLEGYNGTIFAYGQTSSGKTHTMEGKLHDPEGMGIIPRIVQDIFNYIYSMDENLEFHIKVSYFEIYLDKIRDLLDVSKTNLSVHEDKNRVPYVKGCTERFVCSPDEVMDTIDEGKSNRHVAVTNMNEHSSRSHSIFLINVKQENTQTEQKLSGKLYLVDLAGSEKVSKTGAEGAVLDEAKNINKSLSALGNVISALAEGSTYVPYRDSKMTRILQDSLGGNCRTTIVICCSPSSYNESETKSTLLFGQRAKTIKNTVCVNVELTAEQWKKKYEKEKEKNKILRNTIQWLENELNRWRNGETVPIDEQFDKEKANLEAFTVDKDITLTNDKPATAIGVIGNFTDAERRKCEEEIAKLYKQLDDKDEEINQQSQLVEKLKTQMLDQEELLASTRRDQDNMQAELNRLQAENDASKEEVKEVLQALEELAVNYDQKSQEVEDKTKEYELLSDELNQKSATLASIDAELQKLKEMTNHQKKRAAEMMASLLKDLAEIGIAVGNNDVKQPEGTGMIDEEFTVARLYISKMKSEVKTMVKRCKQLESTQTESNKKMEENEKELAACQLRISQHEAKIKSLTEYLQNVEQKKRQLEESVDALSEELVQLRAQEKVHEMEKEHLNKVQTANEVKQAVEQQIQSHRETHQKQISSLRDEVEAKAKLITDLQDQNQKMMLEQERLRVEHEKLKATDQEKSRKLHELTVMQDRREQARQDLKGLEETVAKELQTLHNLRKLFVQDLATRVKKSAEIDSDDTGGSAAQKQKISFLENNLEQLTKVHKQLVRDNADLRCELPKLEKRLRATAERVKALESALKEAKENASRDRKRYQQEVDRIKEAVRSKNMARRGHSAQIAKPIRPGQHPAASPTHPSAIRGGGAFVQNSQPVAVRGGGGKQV

[3] = biological target: the molecule itself; assay: single-molecule fluorescence intensity analysis (TIRF); intensity of GFP-tagged kinesins moving on MTs compared with monomeric GFP, with or without MAP7 proteins; 30°C
[4] = biological target: the molecule itself; assay: SEC-MALS; Superdex 200 10/300, 10 mM Tris HCl pH 7.5, 150 mM NaCl, 20°C; 30 µl of protein at 5 mg/ml injected

B1
landing frequency of K560-GFP on MAP-decorated dynamic MTs in vitro, increasing MAP concentrations, against K560 alone [1]: ≤ 23.6 fold
processivity (run length) of K560-GFP on dynamic MTs in vitro [1]: 2 fold
events of full-length KIF5B-GFP on dynamic MTs in vitro (short binding events and landing followed by processive movement), with MAP against kinesin alone [2]: ≥ 60 fold
run length of full-length KIF5B-GFP on dynamic MTs in vitro, with MAP against kinesin alone [2]: ~1.6 fold

B2
stoichiometry N [3]: 2

B3
stoichiometry N [4]: 2

B4
stoichiometry N [3]: 2
